From article PMC8294330

Key:
[1] = target: PNPase WT;Hfq (Escherichia coli;Escherichia coli) (UniProt P05055+P0A6X3); assay: cryo-EM; details: EMSA: 0.4 uM RNA, PNPase trimer 1:1 and 3:1 over RNA, 20 mM Tris pH 7.5, 100 mM NaCl, 1 mM MgCl2, 1 mM DTT, 30 C 20 min; native PAA gel with 10% glycerol …
[2] = target: PNPase S1x4;Hfq R681A;Q682A;R684A;R686A (Escherichia coli;Escherichia coli) (UniProt P05055+P0A6X3); assay: EMSA; details: EMSA: 0.4 uM RNA, PNPase trimer 1:1 and 3:1 over RNA, 20 mM Tris pH 7.5, 100 mM NaCl, 1 mM MgCl2, 1 mM DTT, 30 C 20 min; native PAA gel with 10% glycerol …

## GCGAUCAGGAAGACCCUCGCGGAGAACCUGAAAGCACGACAUUGCUCACAUUGCUUCCAGUAUUACUUAGCCAGCCGGGUGCUGGCUUUUUUUUU [RyhB]
[1]
  binding: binds
[2]
  binding: no binding
